From US20170275356A1

Molecular target: human IL-23 (human) (UniProt P29460)
Assay: cell-based or functional assay

Sequence of human IL-23 (human) (chain, as listed by the source limits assumed, chain 1 of 2): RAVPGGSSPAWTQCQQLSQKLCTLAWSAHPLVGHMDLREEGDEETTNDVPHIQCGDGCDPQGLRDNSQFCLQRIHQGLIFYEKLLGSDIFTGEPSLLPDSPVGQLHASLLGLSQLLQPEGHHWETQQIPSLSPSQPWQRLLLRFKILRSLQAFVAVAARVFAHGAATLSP
Sequence of human IL-23 (human) (P29460 23-328 limits assumed, chain 2 of 2): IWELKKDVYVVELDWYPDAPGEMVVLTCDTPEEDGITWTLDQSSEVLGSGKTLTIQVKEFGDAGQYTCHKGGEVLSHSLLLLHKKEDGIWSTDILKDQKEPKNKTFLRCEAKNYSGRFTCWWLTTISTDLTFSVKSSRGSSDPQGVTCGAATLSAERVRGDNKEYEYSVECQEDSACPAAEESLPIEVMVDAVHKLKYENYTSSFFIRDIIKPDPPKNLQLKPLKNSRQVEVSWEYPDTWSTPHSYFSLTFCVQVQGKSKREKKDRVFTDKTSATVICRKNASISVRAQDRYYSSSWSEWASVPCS

Ct value, murine IL-17A mRNA in skin injected with human IL-23 (in vivo neutralization): 35.4 Ct
Ct value, murine IL-17F mRNA in skin injected with human IL-23 (in vivo neutralization): 31.6 Ct
Substance: isotype control antibody
